Experimental data published in article PMC8568140, “Assembly of infectious Kaposi’s sarcoma-associated herpesvirus progeny requires formation of a pORF19 pentamer” (PLoS Biology, 2021).

How the values were obtained:
[1] = molecular target: Baculovirus-produced KSHV capsids lacking the portal protein pORF43, Q2HRA7;Q2HRB6; assay: western blot of gradient-purified capsids (capsid assembly assay in insect cells), band intensity quantified; details: 3 independent biological replicates; capsid loading normalized to pORF25-V5 and pORF26; parent: est. 100; read off a plot
[2] = molecular target: the molecule itself; assay: crystal structure; hanging drop, 18°C, 0.1 M HEPES pH 7.5, 1.69 M lithium acetate (native, P212121, 2.6 Å); selenomethionine derivative in 0.1 M MES pH 7.4, 2 M lithium acetate (P21, P6322)
[3] = molecular target: the molecule itself; assay: AUC; sedimentation velocity, 40,000 rpm, 20°C, LiAc buffer with 50 mM HEPES pH 7.5 and 0.5 M lithium acetate; interface mutants at 127 μM, oxidized pORF19_(KCTD)CC at 11 μM

Molecule	percent of parent (% of wt pORF19) [1]	other results
GFP-tagged wt pORF19 (ORF19-GFP) of KSHV D173A; Q177A	93	–
GFP-tagged wt pORF19 (ORF19-GFP) of KSHV V463W; L465Y	91	–
GFP-tagged wt pORF19 (ORF19-GFP) of KSHV loop (156MNQNQ160 replaced by a flexible linker)	92	–
KSHV pORF19 carboxyl-terminal domain (pORF19_(KCTD)) (domain or fragment, The His tag was removed with carboxypeptidase after a first SEC; Two of the three crystal forms (P21, P6322) were of a selenomethionine derivative; also called wt pORF19_(KCTD); KSHV pORF19 CTD; source: E. coli Rosetta (DE3), purified (HisTrap, SEC); not shown: His tag, C-terminal, cleaved) ASHRNFTVAIVPGDPHFSVDRDLRGELMPTLYMNQNQWLPSFGPWFISLTDNAMQRRVFPKELKGTVNFQNSTSLKLISHTLTTVASTTADFFADARHLTDTQAALCLVNAYFCQKTSRQLPATPDDLLADLPQKLDLLITQLKQESGPGDFSFTYSNPQERASLAPLNKESRYPTAFFQRHKLHAMMAKAGLFPHNKGTGAPGTAPAMDLVFAITSAMFGSDIPPFSAYQWNLRAGIVALEVFILAYGLLEFGQVARGHPNRRLNLVSLLGPKFQPGALPDPNAPMLKRGQLFSFISEHYIIPTLQANPNAPVSFIFPGIILAALEARSTVSHKQPGPFVNLTGSRFNEIFEILNQQLTFRDPLALLQARTALRLATEEGLDVLLSHPSPPTLLQEIIKSQFGGGDDYDRAYFMVLGCLPVVLAVV	–	stoichiometry N [2]: 5
oxidized pORF19_(KCTD)CC (KSHV pORF19 CTD with P137C and P461C) (domain or fragment, engineered inter-protomeric disulfide bond between the cysteines introduced at 137 and 461 (oxidized form), pORF19 of Kaposi's sarcoma-associated herpesvirus, residues 123 to 549, with two prolines changed to cysteines; The protomers of the oxidized form are covalently linked by the engineered disulfide bond; also called pentameric pORF19KCTDCC; source: E. coli Rosetta (DE3), purified as pORF19_(KCTD); oxidized with 2 mM GSSG in 0.5 M lithium acetate, then SEC (Superose 6 Increase); not shown: His tag, …) ASHRNFTVAIVPGDCHFSVDRDLRGELMPTLYMNQNQWLPSFGPWFISLTDNAMQRRVFPKELKGTVNFQNSTSLKLISHTLTTVASTTADFFADARHLTDTQAALCLVNAYFCQKTSRQLPATPDDLLADLPQKLDLLITQLKQESGPGDFSFTYSNPQERASLAPLNKESRYPTAFFQRHKLHAMMAKAGLFPHNKGTGAPGTAPAMDLVFAITSAMFGSDIPPFSAYQWNLRAGIVALEVFILAYGLLEFGQVARGHPNRRLNLVSLLGPKFQPGALPDPNAPMLKRGQLFSFISEHYIIPTLQANPNAPVSFIFPGIILAALEARSTVSHKQPGCFVNLTGSRFNEIFEILNQQLTFRDPLALLQARTALRLATEEGLDVLLSHPSPPTLLQEIIKSQFGGGDDYDRAYFMVLGCLPVVLAVV	–	stoichiometry N [3]: 5
